Assay results reported in patent US10696631B2 (priority 2016, dated 2020).
Like-named read-outs stand apart in the source and are kept apart here.

Columns and labels:
HT29 tumor = format: in vivo, mouse; conditions: HT-29 tumor xenografts, 7.4 MBq
Procedure: In order to test the specificity of ^90Y-DMEB-RGD radiotherapy to integrin αvβ3, the efficacy of 7.4 MBq ^90Y-DMEB-RGD in HT29 that expresses lower human integrin levels but has moderate expression of mouse integrin was tested (FIG. 6). […] Injection of HT29 tumor bearing mice with 7.4 MBq ^90Y-DMEB-RGD was compared in the same model to injection of saline (FIG. 18A). […] HT-29 treated and non-treated mice were sacrificed at day 26 post injection due to tumors ulcer.

U87MG tumor [1] = assay: 90Y radiotherapy in U87MG tumor bearing mice; format: in vivo, mouse
Text: NMEB-RGD was applied to integrin αvβ3 targeted radiotherapy. […] Similar pattern was observed after the second injection.

U87MG tumor [2] = assay: Histopathologic staining after targeted radiotherapy (CD31, Ki-67, TUNEL, H&E); format: in vivo, mouse
Procedure: U87MG tumor samples from Groups A-F were collected and sectioned after the animals were sacrificed. […] After being washed three times with PBS, samples were mounted with DAPI for staining of cell nuclei (Vector). Fluorescence images were acquired with an epifluorescence microscope (200×; Olympus, X81).
Immunofluorescent terminal deoxynucleotidetransferase-mediated biotin-dUTP labeling (TUNEL) analysis was done by use of a commercial available kit (Roche Applied Science). According to the manufacture's specifications, samples were fixed with 10% formalin and permeabilized by incubation with 0.1% Triton for 2 min on ice. After fixation and permeabilization, 50 μL of TUNEL reaction mixture were added on the samples. The slides were then incubated in a humidified atmosphere for 60 min at 37° C. in the dark. After rinsing with PBS and mounting with DAPI (Vector), samples were observed under an epifluorescence microscope using GFP channel.
CD31 staining to evaluate tumor vasculature, Ki-67 staining to evaluate tumor proliferation and TUNEL staining to determine the DNA damage were done for all the six groups (A-F). For groups A, E and F that had large necrotic area, staining was focused on the tumor rim where tumor cells were alive.

U87MG tumor [3] = assay: 18F-FDG and 18F-FLT PET imaging after 90Y radiotherapy; format: in vivo, mouse
U87MG xenografts = assay: MicroPET imaging and biodistribution in U87MG xenografts
Text: (§1) Female athymic nude mice (Harlan Laboratories) were housed in an animal facility under pathogen-free conditions. Tumor model was developed in 5 to 6 weeks old female athymic nude mice by injection of 5×10^6 cells into their right shoulders. The mice underwent small-animal PET studies when the tumor volume reached 300 mm^3 (14-20 days after inoculation), and received ^90Y radionuclide therapy when the tumor volume reached 150 mm^3 (10-14 days after inoculation).
(§2) Blood, muscle, bone, liver, kidneys, spleen, intestine, heart and tumor were collected and wet-weighed. […] Radioactivity was measured in a γ-counter. The results were expressed % ID/g.

HT29 cells = assay: Cellular uptake and internalization in HT29 cells; format: cell-based, human
Procedure: (§3) All the cells were supplemented with 10% fetal bovine serum, 100 IU/mL penicillin, and […] streptomycin. Cells were grown in humidified atmosphere containing 5% CO2 at 37° C.

U87MG cells = system: U87MG cells
Procedure: as §3

[4] = format: in vitro ADME, mouse
Text: At each time point, an aliquot was taken and loaded on iTLC plate and developed in for RadioTLC measurements.

MDA-MB-435 xenografts = conditions: mouse, in vivo
Text: as §1, §2

HT29 xenografts = conditions: mouse, in vivo
Text: as §1, §2

[5] = mouse
Procedure: The red blood cells were separated from the plasma using centrifugation (3500 rpm for 5 min). […] The extracted soup was taken, filter on 0.45 μm filter and injected into an analytical HPLC using system 1.

glioblastoma [6] = assay: PET in a patient with WHO stage IV glioblastoma; conditions: GBM patient
[7] = human, in vivo
glioblastoma [8] = conditions: human, in vivo
[9] = PET/CT and dosimetry calculation in healthy volunteers
[10] = human, intravenous administration, n = 3

## Cc1cc(-c2ccc(NC(=O)[C@@H](CCCCNC(=O)CCN3C(=O)CC(SCC(=O)NCCCC[C@H]4NC(=O)[C@H](Cc5ccccc5)NC(=O)[C@H](CC(=O)O)NC(=O)CNC(=O)[C@H](CCCNC(=N)N)NC4=O)C3=O)NC(=O)CN3CCN(CC(=O)O)CCN(CC(=O)O)CCN(CC(=O)O)CC3)c(C)c2)ccc1/N=N/c1ccc2c(S(=O)(=O)O)cc(S(=O)(=O)O)c(N)c2c1O (some centres unmarked) [90Y-DMEB-RGD, metal not drawn]
HT29 tumor
  tumor growth: delay of tumor growth
U87MG tumor [1]; 1.75 MBq, second injection
  tumor volume: No effect on the tumor volume
U87MG tumor [1]; 3.7 MBq, second injection
  tumor volume: Minor tumor shrink
U87MG tumor [1]; 7.4, 3.7 and 1.75 MBq groups
  survival compared with saline and 90Y-DOTA-c(RGDfK) groups: significant differences (p<0.01)
U87MG tumor [1]; 7.4, 3.7 and 1.75 MBq groups, day 6 post treatment
  tumor volume compared with saline group: significantly lower (p<0.01)
U87MG tumor [1]; 7.4 MBq, day 2, regained at day 4
  body weight loss: 5%
U87MG tumor [1]; 7.4 MBq, first injection
  tumor volume: reduction of volume by day 8
U87MG tumor [1]; 7.4 MBq, second injection 14 days post initial treatment
  tumor volume: tumors almost disappeared up to 30 days post initial treatment
U87MG tumor [2]; group B 7.4 MBq
  cell apoptosis (TUNEL staining): considerably more cell apoptosis
  cell proliferation (Ki-67 staining): significantly reduced cell proliferation
  tumor vasculature (CD31 staining): lesser than that in the other groups
U87MG tumor [2]; group B, two doses of 7.4 MBq
  Hematoxylin and eosin staining, tumor necrosis: most of the tumor area in Group B was already necrotic
U87MG tumor [3]; 5 and 12 days post initial treatment, group B 7.4 MBq
  18F-FLT PET, tumor proliferation: significant less 18F-FLT uptake
U87MG tumor [3]; 3 days post-injection
  18F-FDG PET, tumor metabolism: decreased metabolism
U87MG tumor [3]; 10 days post-treatment, group B 7.4 MBq
  18F-FDG PET, tumor metabolism: significant decreased metabolism

## Cc1cc(-c2ccc(NC(=O)CN3CCN4CCN(CC3)CC(=O)[O][64Cu][O]C(=O)C4)c(C)c2)ccc1N=Nc1ccc2c(S(=O)(=O)O)cc(S(=O)(=O)O)c(N)c2c1O [64Cu-NEB]
U87MG xenografts; U87MG xenografts, 24 h p.i., PET
  tumor uptake: approximately 8 % ID/g
U87MG xenografts; U87MG xenografts, up to 4 h p.i.
  uptake in the tumor: 6-7 % ID/g
U87MG xenografts; U87MG, HT29 and MDA-MB-435 xenografts
  order of tumor uptake among xenografts: U87MG>HT29>MDA-MB-435
U87MG xenografts; all time points
  accumulation in the blood compared with the other tracers: highest accumulation in the blood at all time points

## Cc1cc(-c2ccc(NC(=O)[C@@H](CCCCNC(=O)CCN3C(=O)CC(SCC(=O)NCCCC[C@H]4NC(=O)[C@H](Cc5ccccc5)NC(=O)[C@H](CC(=O)O)NC(=O)CNC(=O)[C@H](CCCNC(=N)N)NC4=O)C3=O)NC(=O)CN3CCN(CC(=O)O)CCN(CC(=O)O)CC3)c(C)c2)ccc1/N=N/c1ccc2c(S(=O)(=O)O)cc(S(=O)(=O)O)c(N)c2c1O (some centres unmarked) [64Cu-NMEB-RGD, metal not drawn]
HT29 cells
  cell uptake: 0.76±0.03%
U87MG cells; U87MG cells, 4 h
  cell uptake: 1.86±0.22 % of total input
U87MG cells; all time points
  cell uptake, effect of albumin in the medium: significantly higher in the absence of albumin in the medium
U87MG cells; time points later than 5 min
  internalization: most of ^64Cu-NMEB-RGD uptake was internalized
[4]
  stability in mouse serum (de-metalation): stable in mouse serum for up to 24 h
MDA-MB-435 xenografts
  tumor uptake compared with U87MG: significantly lower than U87MG at all time points
HT29 xenografts
  tumor uptake compared with U87MG: significantly lower than U87MG at all time points
[5]
  stability in the blood in vivo: stable up to 4 h in the blood
[5]; in vivo
  radioactivity extraction bound to the blood proteins fraction: Over 90%
Glioblastoma [6]; 0.5 h
  T(max/N), tumor/non-tumor ratio: 8.36
  T(mean/N), tumor/non-tumor ratio: 4.13
  Tumor-SUVmax: 1.84
  Tumor-SUVmean: 0.91
Glioblastoma [6]; 1 h
  T(max/N), tumor/non-tumor ratio: 9.78
  T(mean/N), tumor/non-tumor ratio: 4.96
  Tumor-SUVmax: 2.74
  Tumor-SUVmean: 1.39
Glioblastoma [6]; 8 h
  T(max/N), tumor/non-tumor ratio: 25.35
  T(mean/N), tumor/non-tumor ratio: 13.05
  Tumor-SUVmax: 5.07
  Tumor-SUVmean: 2.61
Glioblastoma [6]; 12 h
  T(max/N), tumor/non-tumor ratio: 32.89
  T(mean/N), tumor/non-tumor ratio: 17.21
  Tumor-SUVmax: 6.25
  Tumor-SUVmean: 3.27
Glioblastoma [6]; 20 h
  T(max/N), tumor/non-tumor ratio: 63.33
  T(mean/N), tumor/non-tumor ratio: 34.5
  Tumor-SUVmax: 3.8
  Tumor-SUVmean: 2.07
Glioblastoma [6]; 20.5 h
  T(max/N), tumor/non-tumor ratio: 66.16
  T(mean/N), tumor/non-tumor ratio: 34.5
  Tumor-SUVmax: 3.97
  Tumor-SUVmean: 2.07
Glioblastoma [6]; 24 h
  T(mean/N), tumor/non-tumor ratio: 40.2
  Tumor-SUVmax: 3.67
  Tumor-SUVmean: 2.01
[7]
  accumulation in normal organs: no undesired accumulation in normal organs
[7]; iv
  Estimated absorbed dose, Adrenals, Mean: 0.0319 mSv/MBq
  Estimated absorbed dose, Brain, Mean: 0.0077 mSv/MBq
  Estimated absorbed dose, Breasts, Mean: 0.0241 mSv/MBq
  Estimated absorbed dose, Gallbladder Wall, Mean: 0.0346 mSv/MBq
  Estimated absorbed dose, Heart Wall, Mean: 0.0298 mSv/MBq
  Estimated absorbed dose, Liver, Mean: 0.1012 mSv/MBq
  Estimated absorbed dose, Lower Large Intestine Wall, Mean: 0.0291 mSv/MBq
  Estimated absorbed dose, Lungs, Mean: 0.0200 mSv/MBq
  Estimated absorbed dose, Muscle, Mean: 0.0127 mSv/MBq
  Estimated absorbed dose, Osteogenic Cells, Mean: 0.0528 mSv/MBq
  Estimated absorbed dose, Ovaries, Mean: 0.0294 mSv/MBq
  Estimated absorbed dose, Pancreas, Mean: 0.0647 mSv/MBq
  Estimated absorbed dose, Red Marrow, Mean: 0.0230 mSv/MBq
  Estimated absorbed dose, Skin, Mean: 0.0219 mSv/MBq
  Estimated absorbed dose, Small Intestine, Mean: 0.0545 mSv/MBq
  Estimated absorbed dose, Spleen, Mean: 0.1293 mSv/MBq
  Estimated absorbed dose, Stomach Wall, Mean: 0.0301 mSv/MBq
  Estimated absorbed dose, Testes, Mean: 0.0229 mSv/MBq
  Estimated absorbed dose, Thymus, Mean: 0.0261 mSv/MBq
  Estimated absorbed dose, Thyroid, Mean: 0.0248 mSv/MBq
  Estimated absorbed dose, Total Body, Mean: 0.0299 mSv/MBq
  Estimated absorbed dose, Upper Large Intestine Wall, Mean: 0.0317 mSv/MBq
  Estimated absorbed dose, Urinary Bladder Wall, Mean: 0.0268 mSv/MBq
  Estimated absorbed dose, Uterus, Mean: 0.0334 mSv/MBq
Glioblastoma [8]
  T(max/N), tumor/non-tumor ratio: 73.4
[9]; healthy volunteers
  effective dose: 0.1166 Rem/mCi
[9]; [10]
  Effective Dose Equivalent, Mean: 0.0454 mSv/MBq
  Effective Dose, Mean: 0.0315 mSv/MBq
  Estimated absorbed dose, Kidneys, Mean: 0.0994 mSv/MBq
[9]; subject injected with 8 mCi
  exposure: 0.933 Rem
U87MG xenografts; U87MG xenografts, 4 and 24 h p.i.
  tumor accumulation, % ID/g max: 27-30 % ID/g
U87MG xenografts; mouse, in vivo
  tumor uptake (max) higher than uptake of 64Cu-NOTA-c(RGDfk): 15 times
  tumor uptake blocked by: 55-65%
